Among the data in US20250066441A1 are EC50 (M), STAT3-Luc reporter, CTLL2/STAT3-Luc cells, Fold induction and Max fold induction, STAT3-Luc reporter, CTLL2/STAT3-Luc cells values, retold here.

Common to all, as to assay: cell-based or functional assay
Experiment [1] has as its target murine IL12 receptor complex (IL12Rβ1 and IL12Rβ2) on cells (murine) (UniProt Q60837).
For experiment [2] the target is unchanged. The source holds these as a separate data set.
Experiment [3] shares this target. This is another data set of the same source.

Where two headings read alike, the source gives them in different places.

Sequence of murine IL12 receptor complex (IL12Rβ1 and IL12Rβ2) on cells (murine) (Q60837 20-738, chain 1 of 2): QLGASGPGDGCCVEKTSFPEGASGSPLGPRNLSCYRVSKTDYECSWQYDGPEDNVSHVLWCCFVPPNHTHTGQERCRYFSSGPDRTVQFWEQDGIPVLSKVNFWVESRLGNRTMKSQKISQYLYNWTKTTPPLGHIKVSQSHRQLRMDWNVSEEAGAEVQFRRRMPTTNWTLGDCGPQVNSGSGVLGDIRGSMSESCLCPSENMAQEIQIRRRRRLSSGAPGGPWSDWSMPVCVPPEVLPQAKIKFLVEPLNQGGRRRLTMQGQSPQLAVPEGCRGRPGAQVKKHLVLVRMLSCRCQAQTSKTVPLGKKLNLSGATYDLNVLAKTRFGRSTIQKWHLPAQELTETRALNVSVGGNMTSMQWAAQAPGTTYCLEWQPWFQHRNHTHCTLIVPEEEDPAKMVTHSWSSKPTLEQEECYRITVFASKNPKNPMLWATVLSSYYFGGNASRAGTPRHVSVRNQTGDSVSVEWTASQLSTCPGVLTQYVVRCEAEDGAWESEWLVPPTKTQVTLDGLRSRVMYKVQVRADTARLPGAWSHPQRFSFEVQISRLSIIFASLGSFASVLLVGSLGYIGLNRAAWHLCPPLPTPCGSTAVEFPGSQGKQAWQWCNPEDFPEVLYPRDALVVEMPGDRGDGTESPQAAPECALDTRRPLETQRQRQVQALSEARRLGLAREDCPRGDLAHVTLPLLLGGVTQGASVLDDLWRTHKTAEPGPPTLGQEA
Sequence of murine IL12 receptor complex (IL12Rβ1 and IL12Rβ2) on cells (murine) (P97378 24-874, chain 2 of 2, further chain): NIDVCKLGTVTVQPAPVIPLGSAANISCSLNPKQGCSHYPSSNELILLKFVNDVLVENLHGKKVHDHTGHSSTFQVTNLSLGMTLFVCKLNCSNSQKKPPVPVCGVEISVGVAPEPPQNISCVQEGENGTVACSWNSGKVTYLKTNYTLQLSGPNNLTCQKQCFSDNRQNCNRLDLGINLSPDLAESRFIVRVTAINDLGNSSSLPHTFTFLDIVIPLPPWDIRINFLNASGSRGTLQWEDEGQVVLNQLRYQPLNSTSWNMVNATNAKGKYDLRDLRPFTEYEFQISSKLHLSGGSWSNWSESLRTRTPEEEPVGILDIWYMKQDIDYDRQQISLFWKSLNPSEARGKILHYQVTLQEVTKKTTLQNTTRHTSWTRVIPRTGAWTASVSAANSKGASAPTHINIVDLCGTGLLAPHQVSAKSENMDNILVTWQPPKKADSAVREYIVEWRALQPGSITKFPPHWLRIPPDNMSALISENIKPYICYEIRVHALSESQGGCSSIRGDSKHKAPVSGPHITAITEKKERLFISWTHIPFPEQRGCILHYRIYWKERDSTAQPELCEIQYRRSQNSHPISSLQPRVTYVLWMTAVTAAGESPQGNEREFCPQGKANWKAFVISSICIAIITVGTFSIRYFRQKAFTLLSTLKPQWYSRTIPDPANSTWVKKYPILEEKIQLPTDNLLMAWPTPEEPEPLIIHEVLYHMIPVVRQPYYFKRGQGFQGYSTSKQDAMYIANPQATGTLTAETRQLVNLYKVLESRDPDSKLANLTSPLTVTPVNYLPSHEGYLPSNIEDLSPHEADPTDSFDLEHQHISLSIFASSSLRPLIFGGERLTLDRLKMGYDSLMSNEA

B1: Recomb mIL12 (ligand, mouse)
chain 1: MWELEKDVYVVEVDWTPDAPGETVNLTCDTPEEDDITWTSDQRHGVIGSGKTLTITVKEFLDAGQYTCHKGGETLSHSHLLLHKKENGIWSTEILKNFKNKTFLKCEAPNYSGRFTCSWLVQRNMDLKFNIKSSSSSPDSRAVTCGMASLSAEKVTLDQRDYEKYSVSCQEDVTCPTAEETLPIELALEARQQNKYENYSTSFFIRDIIKPDPPKNLQMKPLKNSQVEVSWEYPDSWSTPHSYFSLKFFVRIQRKKEKMKETEEGCNQKGAFLVEKTSTEVQCKGGNVCVQAQDRYYNSSCSKWACVPCRVRS
chain 2: RVIPVSGPARCLSQSRNLLKTTDDMVKTAREKLKHYSCTAEDIDHEDITRDQTSTLKTCLPLELHKNESCLATRETSSTTRGSCLPPQKTSLMMTLCLGSIYEDLKMYQTEFQAINAALQNHNHQQIILDKGMLVAIDELMQSLNHNGETLRQKPPVGEADPYRVKMKLCILLHAFSTRVVTINRVMGYLSSA
Turning to B1, in experiment [1], the EC50 (M), STAT3-Luc reporter, CTLL2/STAT3-Luc cells is 5.56e-11 M; the Fold induction at 6.25 nM, STAT3-Luc reporter, CTLL2/STAT3-Luc cells was determined as 12.2 fold; the Max fold induction, STAT3-Luc reporter, CTLL2/STAT3-Luc cells turned out to be 12.4 fold. In experiment [2], this molecule yielded an EC50 (M), STAT3-Luc reporter, CTLL2/STAT3-Luc cells of 3.46e-11 M; a Fold induction at 20 nM, STAT3-Luc reporter, CTLL2/STAT3-Luc cells of 18.8 fold; a Max fold induction, STAT3-Luc reporter, CTLL2/STAT3-Luc cells of 19.1 fold. Also, in experiment [3], the EC50 (M), STAT3-Luc reporter, CTLL2/STAT3-Luc cells was 3.71e-10 M and the Max fold induction, STAT3-Luc reporter, CTLL2/STAT3-Luc cells was found to be 17.8 fold.
